From article PMC4598101, “Growth of Chitinophaga pinensis on Plant Cell Wall Glycans and Characterisation of a Glycoside Hydrolase Family 27 β-L-Arabinopyranosidase Implicated in Arabinogalactan Utilisation” (PLoS ONE, 2015)

Legend:
[1] = substrate: O=[N+]([O-])c1ccc(O[C@H]2OC[C@H](O)[C@H](O)[C@H]2O)cc1; assay: continuous pNP release, spectrophotometer; assay type: biochemical, Chitinophaga pinensis; settings: 50 mM sodium citrate pH 5.0, 30 °C
Text: (§1) continuous pNP release, spectrophotometer on CpArap27 (Cpin_5740 gene product)

[2] = substrate: O=[N+]([O-])c1ccc(O[C@H]2O[C@H](CO)[C@H](O)[C@H](O)[C@H]2O)cc1; assay: continuous pNP release, spectrophotometer; assay type: biochemical, Chitinophaga pinensis; settings: 50 mM sodium citrate pH 5.0, 30 °C
Text: as §1

B1: CpArap27 (Cpin_5740 gene product) (Chitinophaga pinensis DSM 2588) (protein)
chain: AQQKKDFHSWAPTPPMGWNSWDCYGPTVTEAEVKANADYMASHLKSSGWQYIIVDIRWYVANDKSHGYNETDPAYNIDAYGRFQPAVNRFPSAANGKGFKPLADYIHSKGLKFGIHIMRGVPVVAVNKKLPVKGTNVTAADIYSKQDQCKWLHDMYTIVPDKTGAQEYYNSLFDMYAAWGLDFVKVDDLSAPIYFTEEIEMIRKAITRTGRKILLSTSPGETPIAQGAHVQQHANMWRTVDDFWDNWPHLKDHFEVFDRWNKWRTTGAWPDGDMLPLGHIGIRAERGQPRMTSFTKDEQYTLMTLWTIFRSPLMFGGNLPDNDPFTLSLLTNKQVLQVLNNSSNNRPVFNDKDKAAWTADMPGKSAKYLAVFNKADKDAAAVNVDLSEIGIKGSCTITDLWTGKVLGKFTGSFAPQINPHGAGLYKVTP
notes: ~48 kDa; monomer by SEC
Work on B1 yielded a Km [1] of 12.9 ± 3.27 mM, a kcat [1] of 32.3 ± 3.58 s⁻¹ and a kcat/Km [1] of 2500 M⁻¹ s⁻¹.

B2: CpArap27 (Cpin_5740 gene product) (Chitinophaga pinensis DSM 2588; I73C) (protein)
chain: AQQKKDFHSWAPTPPMGWNSWDCYGPTVTEAEVKANADYMASHLKSSGWQYIIVDCRWYVANDKSHGYNETDPAYNIDAYGRFQPAVNRFPSAANGKGFKPLADYIHSKGLKFGIHIMRGVPVVAVNKKLPVKGTNVTAADIYSKQDQCKWLHDMYTIVPDKTGAQEYYNSLFDMYAAWGLDFVKVDDLSAPIYFTEEIEMIRKAITRTGRKILLSTSPGETPIAQGAHVQQHANMWRTVDDFWDNWPHLKDHFEVFDRWNKWRTTGAWPDGDMLPLGHIGIRAERGQPRMTSFTKDEQYTLMTLWTIFRSPLMFGGNLPDNDPFTLSLLTNKQVLQVLNNSSNNRPVFNDKDKAAWTADMPGKSAKYLAVFNKADKDAAAVNVDLSEIGIKGSCTITDLWTGKVLGKFTGSFAPQINPHGAGLYKVTP
notes: ~48 kDa; monomer by SEC
B2 showed a Km [1] of 21.5 ± 10.4 mM, a kcat [1] of 0.403 ± 0.119 s⁻¹ and a kcat/Km [1] of 18.8 M⁻¹ s⁻¹.

B3: CpArap27 (Cpin_5740 gene product) (Chitinophaga pinensis DSM 2588; I73E) (protein)
chain: AQQKKDFHSWAPTPPMGWNSWDCYGPTVTEAEVKANADYMASHLKSSGWQYIIVDERWYVANDKSHGYNETDPAYNIDAYGRFQPAVNRFPSAANGKGFKPLADYIHSKGLKFGIHIMRGVPVVAVNKKLPVKGTNVTAADIYSKQDQCKWLHDMYTIVPDKTGAQEYYNSLFDMYAAWGLDFVKVDDLSAPIYFTEEIEMIRKAITRTGRKILLSTSPGETPIAQGAHVQQHANMWRTVDDFWDNWPHLKDHFEVFDRWNKWRTTGAWPDGDMLPLGHIGIRAERGQPRMTSFTKDEQYTLMTLWTIFRSPLMFGGNLPDNDPFTLSLLTNKQVLQVLNNSSNNRPVFNDKDKAAWTADMPGKSAKYLAVFNKADKDAAAVNVDLSEIGIKGSCTITDLWTGKVLGKFTGSFAPQINPHGAGLYKVTP
notes: ~48 kDa; monomer by SEC
Work on B3 yielded a Km [2] of 35.6 ± 15.2 mM, a kcat [2] of 0.105 ± 0.0518 s⁻¹ and a kcat/Km [2] of 2.95 M⁻¹ s⁻¹. The Km [1] was 6.56 ± 3.39 mM, the kcat [1] was 0.528 ± 0.115 s⁻¹ and the kcat/Km [1] was 80.5 M⁻¹ s⁻¹.

B4: CpArap27 (Cpin_5740 gene product) (Chitinophaga pinensis DSM 2588; I73D) (protein)
chain: AQQKKDFHSWAPTPPMGWNSWDCYGPTVTEAEVKANADYMASHLKSSGWQYIIVDDRWYVANDKSHGYNETDPAYNIDAYGRFQPAVNRFPSAANGKGFKPLADYIHSKGLKFGIHIMRGVPVVAVNKKLPVKGTNVTAADIYSKQDQCKWLHDMYTIVPDKTGAQEYYNSLFDMYAAWGLDFVKVDDLSAPIYFTEEIEMIRKAITRTGRKILLSTSPGETPIAQGAHVQQHANMWRTVDDFWDNWPHLKDHFEVFDRWNKWRTTGAWPDGDMLPLGHIGIRAERGQPRMTSFTKDEQYTLMTLWTIFRSPLMFGGNLPDNDPFTLSLLTNKQVLQVLNNSSNNRPVFNDKDKAAWTADMPGKSAKYLAVFNKADKDAAAVNVDLSEIGIKGSCTITDLWTGKVLGKFTGSFAPQINPHGAGLYKVTP
notes: ~48 kDa; monomer by SEC
Work on B4 yielded a Km [2] of 35.3 ± 11.9 mM, a kcat/Km [2] of 0.00585 M⁻¹ s⁻¹ and a Km [1] of 8.63 ± 2.14 mM. The kcat [1] was 0.00718 ± 0.000775 s⁻¹ and the kcat/Km [1] was 0.832 M⁻¹ s⁻¹.
